# Experimental data reported in IntAct's records for PubMed 23569223.
# B1: Torsin-1A (Homo sapiens), O14656 (parent)
# chain: MKLGRAVLGLLLLAPSVVQAVEPISLGLALAGVLTGYIYPRLYCLFAECCGQKRSLSREALQKDLDDNLFGQHLAKKIILNAVFGFINNPKPKKPLTLSLHGWTGTGKNFVSKIIAENIYEGGLNSDYVHLFVATLHFPHASNITLYKDQLQLWIRGNVSACARSIFIFDEMDKMHAGLIDAIKPFLDYYDLVDGVSYQKAMFIFLSNAGAERITDVALDFWRSGKQREDIKLKDIEHALSVSVFNNKNSGFWHSSLIDRNLIDYFVPFLPLEYKHLKMCIRVEMQSRGYEIDEDIVSRVAEEMTFFPKEERVFSDKGCKTVFTKLDYYYDD
# Variants of: B1
# Details: with toip2_human TOR1AIP2, Q8NFQ8
row,Variant,effect of a mutation on the interaction
1,E171Q,with no effect

# Variants of: B1
# Details: with toip1_human TOR1AIP1, Q5JTV8
# toip1_human TOR1AIP1, Q5JTV8, sequence (Q5JTV8 whole entry): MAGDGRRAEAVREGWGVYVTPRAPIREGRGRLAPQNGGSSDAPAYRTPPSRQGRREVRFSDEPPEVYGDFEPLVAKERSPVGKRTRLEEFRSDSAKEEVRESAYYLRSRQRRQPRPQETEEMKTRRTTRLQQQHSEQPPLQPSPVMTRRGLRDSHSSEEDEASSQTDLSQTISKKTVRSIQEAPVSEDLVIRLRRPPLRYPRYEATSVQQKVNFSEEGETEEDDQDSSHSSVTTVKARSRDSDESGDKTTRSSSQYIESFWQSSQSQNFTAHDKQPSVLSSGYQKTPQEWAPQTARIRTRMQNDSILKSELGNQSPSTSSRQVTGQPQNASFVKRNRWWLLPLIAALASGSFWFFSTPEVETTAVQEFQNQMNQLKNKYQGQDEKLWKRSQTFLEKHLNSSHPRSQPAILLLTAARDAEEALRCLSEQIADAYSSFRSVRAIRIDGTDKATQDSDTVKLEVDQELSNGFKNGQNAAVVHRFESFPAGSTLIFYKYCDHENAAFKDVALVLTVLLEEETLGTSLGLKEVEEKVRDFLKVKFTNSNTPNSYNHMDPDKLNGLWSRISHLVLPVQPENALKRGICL
row,Variant,effect of a mutation on the interaction
1,E171Q,with no effect
